Read-outs that look alike come from different tables or passages of the source.
What was measured:
[1] = molecular target: T1, human sodium-dependent phosphate transporter 2B (NaPi2b) (human, UniProt O95436 1-690); assay: KinExA, monovalent antibody, IGROV-1 cells
T1 construct: UniProt ID is given as 095436 [sic]; also called hNaPi2b; Hu NaPi2b
T1 sequence: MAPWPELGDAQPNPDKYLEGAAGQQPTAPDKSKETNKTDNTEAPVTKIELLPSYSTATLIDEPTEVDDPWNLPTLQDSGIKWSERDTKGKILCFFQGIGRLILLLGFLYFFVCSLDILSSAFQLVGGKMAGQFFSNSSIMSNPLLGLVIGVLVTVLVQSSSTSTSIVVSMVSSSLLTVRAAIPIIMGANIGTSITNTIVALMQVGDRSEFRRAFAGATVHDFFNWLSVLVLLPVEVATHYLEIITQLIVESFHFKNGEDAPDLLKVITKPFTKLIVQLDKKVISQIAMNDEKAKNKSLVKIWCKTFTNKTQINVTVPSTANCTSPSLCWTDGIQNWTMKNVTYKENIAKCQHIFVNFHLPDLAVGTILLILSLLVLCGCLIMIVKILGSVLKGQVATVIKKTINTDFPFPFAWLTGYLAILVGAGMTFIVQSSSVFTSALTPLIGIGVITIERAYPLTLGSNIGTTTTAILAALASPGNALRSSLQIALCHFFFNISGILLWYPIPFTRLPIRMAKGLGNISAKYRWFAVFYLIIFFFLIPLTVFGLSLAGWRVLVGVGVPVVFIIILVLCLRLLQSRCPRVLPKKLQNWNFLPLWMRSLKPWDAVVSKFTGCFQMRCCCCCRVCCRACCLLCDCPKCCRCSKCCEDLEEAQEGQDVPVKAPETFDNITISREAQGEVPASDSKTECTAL

[2] = molecular target: T1, human sodium-dependent phosphate …; assay: KinExA, monovalent antibody, IGROV-1 cells (endogenous NaPi2b) as titrant, N-curve analysis
[3] = molecular target: T2, KLH (Sigma-Aldrich, H8283); assay: NS-ELISA, KLH coated, antibody at 100 nM
T2 construct: Coating protein of the NS-ELISA

[4] = molecular target: T3, human NaPi2b (sodium-dependent phosphate transporter 2B) (human, UniProt O95436 1-690); assay: flow cytometry on H441 cells (endogenous NaPi2b), 24 h at 4 C
T3 construct: Endogenous NaPi2b on the human tumor cell lines IGROV-1, HCC-78, H441 and H1781; also called hNaPi2b; SLC34A2
T3 sequence: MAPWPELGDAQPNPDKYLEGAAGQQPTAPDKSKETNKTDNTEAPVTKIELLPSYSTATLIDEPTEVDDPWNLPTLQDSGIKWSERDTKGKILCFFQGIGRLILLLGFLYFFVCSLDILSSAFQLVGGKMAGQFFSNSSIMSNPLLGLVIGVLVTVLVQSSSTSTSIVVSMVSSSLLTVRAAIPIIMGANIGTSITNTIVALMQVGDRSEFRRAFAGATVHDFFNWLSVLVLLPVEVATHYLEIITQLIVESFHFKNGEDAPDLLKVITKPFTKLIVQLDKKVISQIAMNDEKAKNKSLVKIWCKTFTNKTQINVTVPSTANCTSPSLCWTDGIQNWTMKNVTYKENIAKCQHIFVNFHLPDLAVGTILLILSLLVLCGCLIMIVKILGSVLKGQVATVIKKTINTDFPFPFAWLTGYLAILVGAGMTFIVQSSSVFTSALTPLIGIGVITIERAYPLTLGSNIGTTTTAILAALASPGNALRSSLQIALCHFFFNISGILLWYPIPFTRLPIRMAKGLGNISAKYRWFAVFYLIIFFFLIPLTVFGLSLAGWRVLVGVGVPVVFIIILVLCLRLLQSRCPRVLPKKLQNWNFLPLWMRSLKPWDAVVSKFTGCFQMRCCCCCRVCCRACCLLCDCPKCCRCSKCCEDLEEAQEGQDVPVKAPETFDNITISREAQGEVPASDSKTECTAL

[5] = molecular target: T3, human NaPi2b (sodium-dependent …); assay: flow cytometry on HCC-78 cells (endogenous NaPi2b), 24 h at 4 C
[6] = molecular target: T3, human NaPi2b (sodium-dependent …); assay: flow cytometry on IGROV-1 cells (endogenous NaPi2b), 24 h at 4 C
[7] = molecular target: T4, human FcγR I CD64 (Sino Biological Inc. 10256-H08H) (human, UniProt P12314 16-288); assay: SPR (Biacore T200), antibody captured on protein A, FcγR as analyte, multicycle, 1:1 fit
T4 construct: Bought reagent
T4 sequence (P12314 16-288 limits assumed): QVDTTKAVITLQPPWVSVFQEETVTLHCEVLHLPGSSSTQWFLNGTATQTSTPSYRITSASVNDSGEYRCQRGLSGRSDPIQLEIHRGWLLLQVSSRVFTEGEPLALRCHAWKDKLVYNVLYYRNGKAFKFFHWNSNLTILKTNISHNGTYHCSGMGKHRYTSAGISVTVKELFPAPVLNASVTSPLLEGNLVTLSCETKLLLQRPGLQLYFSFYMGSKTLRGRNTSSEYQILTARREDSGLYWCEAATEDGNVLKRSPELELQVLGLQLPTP

[8] = molecular target: T4, human FcγR I CD64 (Sino Biological Inc. …); assay: as above; remark: listed apart in the source
[9] = molecular target: T5, human FcγR IIA H131 CD32aH (v5774) (human, UniProt P12318 34-217, limits assumed); assay: SPR (Biacore T200), antibody captured on protein A, FcγR as analyte, single-cycle, steady-state fit
T5 construct: In-house reagent
T5 sequence (looked up): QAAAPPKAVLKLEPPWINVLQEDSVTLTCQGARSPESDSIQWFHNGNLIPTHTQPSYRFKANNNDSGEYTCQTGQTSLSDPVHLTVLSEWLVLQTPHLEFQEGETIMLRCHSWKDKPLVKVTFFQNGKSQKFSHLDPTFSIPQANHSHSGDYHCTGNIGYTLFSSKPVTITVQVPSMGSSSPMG

[10] = molecular target: T6, human FcγR IIB Y160 CD32bY (v5777) (human, UniProt P31994 43-217, limits assumed); assay: as above
T6 construct: In-house reagent
T6 sequence (looked up): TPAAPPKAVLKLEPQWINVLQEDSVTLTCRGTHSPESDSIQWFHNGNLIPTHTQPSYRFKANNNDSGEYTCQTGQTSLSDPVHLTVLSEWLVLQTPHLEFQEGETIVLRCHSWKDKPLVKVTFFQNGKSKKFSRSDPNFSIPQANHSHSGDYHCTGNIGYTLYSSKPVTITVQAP

[11] = molecular target: T7, human FcγR IIIA F159 CD16aF (v5772) (human, UniProt P08637 17-208, limits assumed); assay: as above
T7 construct: In-house reagent
T7 sequence (P08637 17-208 limits assumed): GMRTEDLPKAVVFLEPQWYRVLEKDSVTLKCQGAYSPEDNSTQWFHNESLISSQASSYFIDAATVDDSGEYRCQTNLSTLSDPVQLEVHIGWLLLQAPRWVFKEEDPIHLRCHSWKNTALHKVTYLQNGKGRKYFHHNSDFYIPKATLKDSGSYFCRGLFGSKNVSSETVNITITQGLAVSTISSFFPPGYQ

[12] = molecular target: T5, human FcγR IIA H131 CD32aH (v5774); assay: as above; remark: listed apart in the source
[13] = molecular target: T6, human FcγR IIB Y160 CD32bY (v5777); assay: as above; remark: listed apart in the source
[14] = molecular target: T7, human FcγR IIIA F159 CD16aF (v5772); assay: as above; remark: listed apart in the source
Biotinylated human FcRn = molecular target: T8, Biotinylated human FcRn (human, UniProt P55899 24-297; P61769 21-119, limits assumed, biotinylated (site not stated)); assay: SPR (Biacore T200), biotinylated FcRn on neutravidin, antibody as analyte, pH 5.9, steady-state fit
T8 construct: also called Biotinlated human FcRn; human neonatal fragment crystallizable receptor (FcRn)
T8 sequence (P55899 24-297 limits assumed, chain 1 of 2): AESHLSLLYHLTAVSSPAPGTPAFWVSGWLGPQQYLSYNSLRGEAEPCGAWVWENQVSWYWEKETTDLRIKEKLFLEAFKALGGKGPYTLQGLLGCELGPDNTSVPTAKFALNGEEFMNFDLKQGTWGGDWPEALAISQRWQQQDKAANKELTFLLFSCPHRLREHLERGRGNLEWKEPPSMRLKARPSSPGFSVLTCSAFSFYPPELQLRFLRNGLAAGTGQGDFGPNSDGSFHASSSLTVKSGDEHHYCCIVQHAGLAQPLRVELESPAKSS
T8 sequence (P61769 21-119 limits assumed, chain 2 of 2): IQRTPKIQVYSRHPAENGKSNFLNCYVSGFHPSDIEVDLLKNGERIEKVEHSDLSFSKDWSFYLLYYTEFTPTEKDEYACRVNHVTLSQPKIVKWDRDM

[15] = molecular target: T9, KLH (Sigma-Aldrich, H8283); assay: non-specific ELISA, KLH coated, antibody 100 nM
T9 construct: Coating of the non-specific ELISA

[16] = molecular target: T1, human sodium-dependent phosphate …; assay: flow cytometry, IGROV-1 cells (endogenous NaPi2b); set-up: unit not given here
[17] = molecular target: T1, human sodium-dependent phosphate …; assay: flow cytometry, HEK293-6e cells transfected with human NaPi2b
[18] = molecular target: T1, human sodium-dependent phosphate …; assay: flow cytometry, IGROV-1 cells (endogenous NaPi2b); apparent Kd
cynomolgus monkey NaPi2b [19] = molecular target: T10, cynomolgus monkey NaPi2b (cynomolgus monkey, UniProt O95436 1-690 (human entry)); assay: flow cytometry, HEK293-6e cells transfected with cynomolgus NaPi2b
T10 construct: also called Cyno NaPi2b; Cy NaPi2b
T10 chain: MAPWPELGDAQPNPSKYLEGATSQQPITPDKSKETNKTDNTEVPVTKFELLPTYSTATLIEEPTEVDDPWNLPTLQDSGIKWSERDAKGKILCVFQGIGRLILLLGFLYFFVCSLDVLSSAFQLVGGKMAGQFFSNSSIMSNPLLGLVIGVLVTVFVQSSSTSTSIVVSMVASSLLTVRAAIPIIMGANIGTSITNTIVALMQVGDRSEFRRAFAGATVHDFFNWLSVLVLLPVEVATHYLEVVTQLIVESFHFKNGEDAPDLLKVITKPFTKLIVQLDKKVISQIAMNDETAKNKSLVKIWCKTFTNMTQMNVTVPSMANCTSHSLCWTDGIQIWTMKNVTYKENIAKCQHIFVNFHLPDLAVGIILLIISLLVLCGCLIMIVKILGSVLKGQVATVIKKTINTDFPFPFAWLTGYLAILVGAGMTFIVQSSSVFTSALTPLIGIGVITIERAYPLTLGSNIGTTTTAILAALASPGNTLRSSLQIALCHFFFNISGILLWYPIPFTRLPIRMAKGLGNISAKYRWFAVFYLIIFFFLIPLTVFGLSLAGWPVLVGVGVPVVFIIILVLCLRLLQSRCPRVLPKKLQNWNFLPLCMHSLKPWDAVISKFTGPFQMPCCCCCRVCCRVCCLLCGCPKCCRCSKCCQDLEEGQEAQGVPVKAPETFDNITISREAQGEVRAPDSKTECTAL

[20] = molecular target: T1, human sodium-dependent phosphate …; assay: flow cytometry, HEK293-6e cells transfected with human NaPi2b; apparent Kd
mouse NaPi2b = molecular target: T11, mouse NaPi2b (mouse, UniProt Q9DBP0 1-697); assay: flow cytometry, HEK293-6e cells transfected with mouse NaPi2b; apparent Kd
T11 construct: also called Ms NaPi2b; CL #13476
T11 sequence: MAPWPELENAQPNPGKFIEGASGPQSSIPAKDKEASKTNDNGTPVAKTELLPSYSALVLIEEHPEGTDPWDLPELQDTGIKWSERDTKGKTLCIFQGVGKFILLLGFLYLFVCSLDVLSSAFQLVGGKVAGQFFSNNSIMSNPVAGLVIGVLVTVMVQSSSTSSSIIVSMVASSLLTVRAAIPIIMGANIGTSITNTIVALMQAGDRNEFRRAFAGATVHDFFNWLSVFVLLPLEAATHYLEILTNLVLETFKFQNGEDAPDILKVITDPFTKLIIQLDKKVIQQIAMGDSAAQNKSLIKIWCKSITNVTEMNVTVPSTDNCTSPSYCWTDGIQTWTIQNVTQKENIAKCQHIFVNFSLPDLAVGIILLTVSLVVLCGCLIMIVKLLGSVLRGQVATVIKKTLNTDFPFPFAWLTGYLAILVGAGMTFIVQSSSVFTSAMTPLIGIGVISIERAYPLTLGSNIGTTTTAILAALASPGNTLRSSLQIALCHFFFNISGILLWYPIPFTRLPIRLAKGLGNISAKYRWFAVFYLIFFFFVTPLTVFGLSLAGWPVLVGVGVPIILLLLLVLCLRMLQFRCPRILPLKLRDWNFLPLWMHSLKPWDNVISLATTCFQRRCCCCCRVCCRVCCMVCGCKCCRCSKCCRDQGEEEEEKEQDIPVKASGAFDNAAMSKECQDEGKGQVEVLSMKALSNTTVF

cynomolgus monkey NaPi2b [21] = molecular target: T10, cynomolgus monkey NaPi2b; assay: flow cytometry, HEK293-6e cells transfected with cynomolgus NaPi2b; apparent Kd

B1: v36123 (monovalent format of humanized antibody variant 29452) (antibody, V domains shown)
VH: QVQLVQSGAEVKKPGASVKVSCKASGFTFTSYNVHWVRQAPGQGLEWMGAISPGNGDLSYAQKFQGRVTMTRDTSTSTVYMELSSLRSEDTAVYYCARGRTGMGAVDYWGQGTLVTVSS
VL: DVQMTQSPSSLSASVGDRVTITCRASQDVYSYLNWYQQKPGKAVKLLIYYTSRLQSGVPSRFSGSGSGTDYTLTISSLQPEDIATYYCQQYNIFPWTFGQGTKLEIK
notes: Monovalent format; rest of the construct not described; also called VH1/VL3
fold lower binding affinity compared to chimeric parental antibody construct [1]: ~2 fold | Kd [2]: 0.297 nM

B2: v38591 (humanized anti-NaPi2b antibody, wild-type Fc) (antibody, human IgG1, kappa)
heavy: not shown
light: DVQMTQSPSSLSASVGDRVTITCRASQDVYSYLNWYQQKPGKAVKLLIYYTSRLQSGVPSRFSGSGSGTDYTLTISSLQPEDFATYYCQQYNIFPWTFGQGTKLEIKRTVAAPSVFIFPPSDEQLKSGTASVVCLLNNFYPREAKVQWKVDNALQSGNSQESVTEQDSKDSTYSLSSTLTLSKADYEKHKVYACEVTHQGLSSPVTKSFNRGEC
notes: Full-size human IgG1/kappa; Identical to v29456 except that the heavy chains include a C-terminal lysine; also called v38591 Wild-type; v38591Wild-type
NS-ELISA (Binding score) [3]: 0.97 ratio to buffer well | Bmax (MFI) [4]: 511 MFI | Kd [4]: 0.85 nM | Bmax (MFI) [5]: 7990 MFI | Kd [5]: 1.03 nM | Bmax (MFI) [6]: 10200 MFI | Kd [6]: 0.8 nM | Kd [7]: 0.0585 nM | Binding percentage [8]: 91.2% | Kd [8]: 0.0585 nM | Binding percentage [9]: 80% | Kd [9]: 799 nM | Binding percentage [10]: 103% | Kd [10]: 4980 nM | Kd [11]: 1130 nM | Binding percentage [12]: 80% | Kd [12]: 799 nM | Binding percentage [13]: 103% | Kd [13]: 4980 nM | Kd [14]: 1130 nM | Binding percentage (Biotinylated human FcRn): 28.6%

B3: v29456 (H1L2) (antibody, human IgG1, kappa)
heavy: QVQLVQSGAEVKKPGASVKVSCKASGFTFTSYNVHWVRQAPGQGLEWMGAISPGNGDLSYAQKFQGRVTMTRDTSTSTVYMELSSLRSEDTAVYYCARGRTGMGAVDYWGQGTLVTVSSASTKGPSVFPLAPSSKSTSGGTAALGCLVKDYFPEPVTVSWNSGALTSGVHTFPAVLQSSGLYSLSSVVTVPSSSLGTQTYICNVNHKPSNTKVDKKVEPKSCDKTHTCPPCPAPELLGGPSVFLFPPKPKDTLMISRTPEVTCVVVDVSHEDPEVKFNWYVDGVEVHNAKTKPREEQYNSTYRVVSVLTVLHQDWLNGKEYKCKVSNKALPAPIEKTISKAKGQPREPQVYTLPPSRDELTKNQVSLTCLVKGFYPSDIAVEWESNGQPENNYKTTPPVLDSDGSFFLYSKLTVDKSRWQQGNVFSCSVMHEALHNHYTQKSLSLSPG
light: DVQMTQSPSSLSASVGDRVTITCRASQDVYSYLNWYQQKPGKAVKLLIYYTSRLQSGVPSRFSGSGSGTDYTLTISSLQPEDFATYYCQQYNIFPWTFGQGTKLEIKRTVAAPSVFIFPPSDEQLKSGTASVVCLLNNFYPREAKVQWKVDNALQSGNSQESVTEQDSKDSTYSLSSTLTLSKADYEKHKVYACEVTHQGLSSPVTKSFNRGEC
notes: Humanized IgG1/kappa; heavy chain ends at G446 (EU); also called humanized antibody variant v29456
NS-ELISA binding score (signal over buffer well) [15]: 1.37 | Bmax [16]: 40900 | Bmax [17]: 2540 | Kd [18]: 1.1 nM | Bmax (cynomolgus monkey NaPi2b [19]): 2010 | Kd [20]: 5.2 nM | Kd (mouse NaPi2b): 10.6 nM | Kd (cynomolgus monkey NaPi2b [21]): 3.2 nM

Source: patent US20260232827A1 (Zymeworks, published 2026)
